According to patent publication US11110182B2, “Multifunctional RNA nanoparticles and methods for treating cancer and therapeutic resistant cancer” (University of Cincinnati, priority 2016, dated 2021):

B1: pRNA-HER2apt-siMED1: 3-WJ pRNA nanoparticle bearing a HER2-targeting RNA aptamer and two different MED1 siRNAs; strands p1 SEQ ID NO: 3, p2 SEQ ID NO: 4 (nucleic acid)
chain 1: GGACAGUGAAAGUGAGUCAAAGGAUCAAUCAUGGCCAAAGAUGUUACUUUGAGAGCCUU
chain 2: GGCUCUCAAAGUAACAUCUAAGGCCAUGUGUAUGUGGGGGGAGGACGAUGCGGUCUGCUGUGCUUGAUAUGCCCCAGACGACUCGCCCCCCACAUACUUUGUUGAUCCAAUGACUCACUUUCACUGUCCUU
modifications: 2'-F modification; third strand may lack entry; pRNA-HER2apt-siMED1, p1; pRNA-HER2apt-siMED1, p2
B2: pRNA-HER2apt^mut-siMED1: control pRNA nanoparticle with mutant HER2 aptamer; strands p1 SEQ ID NO: 5, p2 SEQ ID NO: 6 (nucleic acid)
chain 1: B1 chain 1
chain 2: GGCUCUCAAAGUAACAUCUAAGGCCAUGUGUAUGUGGGAUGAGGAGUAUGAAGAUACCUGUACUUGAUAUGCCCCAGACGACAUUCCCCCCACAUACUUUGUUGAUCCAAUGACUCACUUUCACUGUCCUU
modifications: pRNA-HER2apt(mut)-siMED1, p1; pRNA-HER2apt(mut)-siMED1, p2

System: BT474 orthotopic xenograft tumors
Assay: In vivo targeting and biodistribution imaging of AF647-labeled nanoparticles
Design: species or system mice
Conditions: for signals in liver and kidney, biodistribution: AF647 fluorescence of excised organs; for accumulation in the xenograft tumors, biodistribution of excised organs and tumors: AF647 fluorescence of excised tumors; for localization in frozen tumor sections (penetration to tumor cells): confocal microscopy, microvessels stained with anti-CD31
Procedure: FIG. 2A) Confocal microscopy analyses of the internalization of AF647-labeled control and pRNA-HER2apt-siMED1 nanoparticles by BT474 cells. Scale bar: 10 μm. FIG. 2B) Flow cytometry assays of the cellular uptake of AF647-labeled control and pRNA-HER2apt-siMED1 nanoparticles by BT474 cells. FIG. 2C) IVIS Lumina live imaging of BT474 orthotopic xenograft mice 24 hrs after i.v. injection of indicated AF647-labeled pRNA nanoparticles (10 mg/Kg). FIG. 2D) Major organs and tumors of above mice were excised and imaged for AF647 fluorescence. FIG. 2E) Frozen tumor sections were examined for localization of AF647-labeled pRNA nanoparticles (red) using confocal microscopy. The blood vessels were stained with anti-CD31 primary antibody and Alexa488-conjugated secondary antibody (green). The nuclei were stained with DAPI (blue). Scale bar: 50 μm. FIG. 2F) The fluorescence intensity of AF647-labeled pRNA nanoparticles (red) in frozen tumor sections was quantified with Image-pro Plus software.
Migration and metastasis assay. The 8-μm-pore-size polycarbonate membrane, which separates the two chambers of a 6.5-mm Transwell (Costar), was coated with or without 1:8 DMEM-diluted Matrigel (Corning). Transwell assay was performed as previously described.^57 Briefly, BT474 cells were treated with pRNAs alone or together with 4-hydroxy-tamoxifen (4-OHT) for 48 h and starved with serum-free DMEM containing 0.2% BSA overnight. On the next day, cells were collected and 2×10^5 cells were seeded to the upper chamber of Transwell. The lower chamber was filled with 600 μL DMEM medium containing 10% FBS. After incubation at 37° C. for 24 h, cells on the membranes were fixed and stained with 0.1% crystal violet in 20% ethanol solution. Cells at top side of membranes were removed completely, and cells at the bottom side were examined with an Olympus SZX12 microscope and counted. • Mammosphere culture and breast cancer stem cell analyses. BT474 cells were treated with pRNAs for 48 h. Then, cells were suspended in DMEM/F12 medium supplemented with 1×B27 (Thermo Fisher), 20 ng/mL bFGF and 20 ng/mL EGF (R&D), and added into 24-well ultralow attachment plates. After treatment with or without 1 μM 4-OHT for 7 days, mammosphere formation was recorded using an Axiovert S100 TV inverted microscope (Zeiss). Xenograft tumor tissues were cut into small pieces and digested with trypsin and collagenase at 37° C. for 1 h, and tumor cells were collected and rinsed with pre-cold PBS. All cells were stained with FITC-conjugated anti-CD44 antibody and PE-conjugated anti-CD24 antibody (BD Pharmingen) in the dark on ice for 30 min. After resuspension with 0.5 mL PBS buffer, CD44^+/CD24^−/low cell population was analyzed by flow cytometry. • Orthotopic xenograft breast tumor mouse model, in vivo imaging and anti-tumor therapy. Six-week-old female athymic nude mice were purchased from Charles River Laboratories, and all animal procedures were performed under IACUC-approved protocols at the University of Cincinnati. Athymic nude mice were orthotopically injected with 1×10^7 BT474-luc cells mixed with matrigel into the fat pads of the forth pair of mammary glands. When the tumor sizes reached 100-150 mm^3, the mice were randomly divided into four groups (4/group) and intravenously (i.v.) injected with pRNAs (4 mg/Kg) once a week for three weeks. For tamoxifen treatments, 0.5 mg tamoxifen (Sigma) dissolved in sesame oil was intraperitoneally (i.p.) injected into mice 5 days a week for three weeks. The tumor volume was monitored every 3 days, and tumor size was calculated using the formula: volume=0.5×(width)^2×(length). For in vivo pRNA nanoparticle targeting and tumor imaging, mice were i.v. injected with AF647-conjugated pRNA nanoparticles or i.p. injected with D-luciferin and imaged using the IVIS Lumina imaging system with Living Images 3.0 software (Caliper Life Sciences). […]

Molecule | accumulation in the area of the xenograft tumor, live animal imaging (AF647-conjugated, 10 mg/Kg i.v., 24 hrs) | signals in liver and kidney, biodistribution | accumulation in the xenograft tumors, biodistribution of excised organs and tumors | localization in frozen tumor sections (penetration to tumor cells)
B1 | strongly accumulated | low levels of residual signals | predominant accumulation | very effectively penetrated to tumor cells
B2 |  | low levels of residual signals | not | remained in the microvessels
